In the experiment the target is recombinant fusion p30-mFc protein (ASFV p30 fused to mouse IgG1 Fc) (African swine fever virus (strain not stated)) (UniProt P34204). Nature of the experiment: SEC-MALS. A general note: SEC sorts molecules by how far they enter the pores of the column.

As for “recombinant fusion p30-mFc protein (ASFV p30 fused to mouse IgG1 Fc) (from UniProt P34204 1-204) (Fc fusion)”, the stoichiometry N (in general, a count of units in the complex or per binding partner) was 2.

These data come from PMC9769802.
